Patent publication US20230111279A1 (Takeda / Millennium, published 2023)

T1: Clec12A-His protein, Clec12A (H65-A265-WT-EOm-NIgKss-6His) (human, UniProt Q5QGZ9 65-265)
T1 construct: The protein was biotinylated for the ELISA binning assay; also called soluble Clec12A-His; soluble Clec12A
T1 sequence: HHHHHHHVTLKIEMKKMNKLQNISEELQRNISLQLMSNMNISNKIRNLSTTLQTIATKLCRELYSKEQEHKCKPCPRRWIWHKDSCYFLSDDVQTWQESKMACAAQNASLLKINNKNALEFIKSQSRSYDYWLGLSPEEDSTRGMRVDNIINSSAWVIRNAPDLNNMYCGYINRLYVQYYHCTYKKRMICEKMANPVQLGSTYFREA


How the values were obtained:
[1] = biological target: T1, Clec12A-His protein, Clec12A …; experiment: Biacore SPR; antibody captured on anti-mouse IgG chip, soluble Clec12A-His at 100 nM in solution
Protocol: (§1) Briefly, […] anti-Clec12A antibodies derived from and produced in hybridoma were tested for their binding affinity on soluble Clec12A in a Biacore SPR system. Briefly, the antibodies were immobilized on anti-mouse IgG sensor chips and bound to soluble Clec12A-His protein (Clec12A extracellular domains fused to 6×His tag (SEQ ID NO: 79)) at 100 nM in the solution phase. The resulting Biacore traces are as shown in […]

[2] = biological target: T1, Clec12A-His protein, Clec12A …; experiment: Biacore SPR; antibody captured on anti-mouse IgG chip, soluble Clec12A-His at 100 nM in solution; monovalent
Protocol: as §1

| koff [1] [s⁻¹] | kon [1] [M⁻¹ s⁻¹] | Kd [2] [nM] | Binder |
| --- | --- | --- | --- |
| 0.000666 | 176000 | 3.78 | anti-Clec12A antibody B (antibody, V domains shown, Hybridoma-produced IgG; also called Clone B) VH: QVQLVESGGGVVQPGRSLRLSCAASGFTFSSYGMHWVRQAPGKGLEWVAVISYDGSDKYYVDSVKGRFTISRDNSKNTLYLHMNSLRAEDTAVYYCARDKGYYFDYWGQGTLVTVSS VL: EIVMTQSPATLSLSPGERATLSCRASQSVGNRYLSWYQQKPGQAPRLLIYGASTRATGIPARFSGSGSGTDFTLTISSLQPEDFAVYYCQQDYNLPLTFGGGTKVEIK |
| < 1e-05 | 182000 | < 0.0549 | anti-Clec12A antibody C (antibody, V domains shown, Hybridoma-produced IgG; also called Clone C) VH: QVQLVESGGGVVQPGRSLRLSCAASGFTFSSYGMHWVRQAPGKGLEWVAVISYDGSDKYSADSVKGRFNISRDNSKNTLYLQMNSLRAEDTAVYYCARDGSRYFDYWGQGTLVTVSS VL: EIFMTQSPATLSLSPGERATLSCRASQSVHSKYLSWYQQKPGQAPSLLIYGASTRATGIPARFSGSGSGTDFTLTISSLQPEDFAVYYCQQDYNLPITFGQGTRLEIK |
| 0.0132 | 4.62e+06 | 2.87 | anti-Clec12A antibody A (antibody, V domains shown, Described as a human anti-Clec12A antibody derived from and produced in hybridoma, captured on anti-mouse IgG sensor chips; also called Clone A) VH: QVQLQESGPGLVKPSETLSLTCTVSGGSISTYYWSWIRQPPGKGLEWIGYIYYSGSTKYNPSLKSRVTISVDTSKNLFSLKLSSVTAADTAVYYCAREDYYGSGSPFDYWGQGTLVTVSS VL: IQMTQSPSSLSASVGDRVTITCRASQGIRYDLGWYQQKPGKAPKLLIYAASSLQSGVPSRFSGSGSGTDFTLTISSLQPEDFATYYCLQDYNFPRTFGQGTKVEIK |
| – | – | 1.99 | anti-Clec12A antibody D (antibody, V domains shown, Hybridoma-produced IgG; also called Clone D; anti-Clec12A Clone D antibody) VH: QLQLQESGPGLVKPSETLSLTCTVSGGSISSSTYYWGWIRQPPRKGLEWIGSTHYRGSTYYNPSLKSRVTISVDTSKNQFSLKVSSVTAADTAVYYCARELTGEVFDYWGQGTLVTVSS VL: not shown |
